From patent US12679888B2, “IL-18 binding protein (IL-18BP) and antibodies for treating inflammatory diseases” (AB2 BIO SA, priority 2015, dated 2026)
Where “and” joins values, the source holds several entries; their conditions need not be identical. Equal entries are not always repeated. Where two headings read alike, the source gives them in different places.

Columns and labels:
C57BL/6J mice = experiment: Four-day exacerbation/tobacco smoke mouse model (COPD exacerbation); format: in vivo
Description: The aim of the study was to determine the effect of IL-18BP, administered at three dose levels, by the sub-cutaneous route, on Polyinosinic:polycytidylic acid-induced exacerbation of tobacco-smoke induced pulmonary inflammation, in C57BL/6J mice. High level of dexamethasone, dosed orally, was included in the study as a reference agent.
Mice received either vehicle (PBS) or IL-18BP. IL-18BP was given subcutaneously to 3 groups of animals respectively at 1, 3 or 10 mg/kg 2 h prior to the initial tobacco smoke exposure from Day 1 to Day 4. Mice received orally either vehicle or dexamethasone (10 mg/kg) 1 h prior to each twice daily exposure. Mice received by intranasal administration either the vehicle or Polyinosinic:polycytidylic acid (2 mg/kg) 2 h prior to the initial air or tobacco smoke exposure on Day 4 to induce lung inflammation exacerbation. Tobacco smoke exposure was performed during the morning and afternoon as follow: Day 1 for 15 min, Day 2 for 25 min, Day 3 for 30 min and Day 4 for 30 min.
Following the above treatments, animals were terminally anaesthetised on Day 5. After that, a blood sample was taken via the sub-clavian artery (plasma) and the animals were bronchoalveloar lavaged with 3×0.4 ml of PBS for further cellular and cytokine/mediator analysis. Bronchoalveolar lavage supernatants were stored at −80° C. for cytokine/mediator analysis. Cells recovered from the BALF were counted using the Sysmex cell counter.

RA and Pso patients = experiment: Previous human studies with r-hIL-18BP in RA and Pso patients; format: in vivo; conditions: 20 mg 3 times a week
Description: No validated animal model has been described for this condition. In the collagen-induced arthritis murine model the active dose for r-hIL-18BP administered intraperitoneally (i.p.) was determined to be 1 mg/Kg body weight. […] Altogether the expected pharmacologically active dose for a “humanized mice” treated by s.c. route with r-hIL-18BP is round 4.85 mg/kg. […] Although the guidance was initially written for extrapolating animal doses to healthy volunteers, its principles can be applied also to patients. […] Those doses will be likely also ineffective in AoSD patients considering that blood levels of IL-18 in AoSD are higher than those reported in the two above mentioned conditions.

IL-18 [1] = biological target: T1, IL-18 (Homo sapiens, UniProt Q14116); experiment: New BIAcore setup: IL-18BP bound to chip, affinity to IL-18; format: binding; set-up: purchased; conditions: IL-18BP bound to BIAcore chip
T1 sequence (Q14116 37-193): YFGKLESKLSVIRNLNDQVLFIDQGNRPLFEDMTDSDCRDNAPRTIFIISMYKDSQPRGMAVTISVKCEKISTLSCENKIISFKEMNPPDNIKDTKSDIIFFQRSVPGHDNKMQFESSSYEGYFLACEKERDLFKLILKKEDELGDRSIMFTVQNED
Excerpt: Following the above KD results obtain by titration, we tested the binding affinity of IL-18BP to IL-18 with a simpler BIAcore setup consisting of binding IL-18BP to the BIAcore chip and then testing its affinity to IL-18. The method setup is the contrary of Kim et al 2000 ^8, who bound IL-18 to the BIAcore chip with a monoclonal antibody and then tested the affinity of the complex antibody-IL-18 to IL-18BP.

[2] = in vivo
IL-18 [3] = biological target: T1, IL-18; conditions: cited from earlier work
IL-18 [4] = biological target: T1, IL-18; experiment: KD calculation by titration of IL-18 with IL-18BP, free IL-18 ELISA (IL-18BP capture); format: binding; set-up: purchased; conditions: read-out: KD between human IL-18 and IL-18BP by titration
Description: Microplate wells are coated with an appropriate volume phosphate buffer saline solution containing recombinant human IL-18BP (r-hIL-18BP) as shown in SEQ ID NO 7, and less than 30% of N-terminal and/or C-terminal deletion variants of IL-18BP. A description of the r-hIL-18BP is provided in section 6.6.1 below. A description of the purification protocol is provided in section 6.6.2. Plates are incubated for a period of time at 4° C. and then stabilized with a blocking buffer containing bovine serum albumin or other appropriate blocking agents. Once the reaction is finished, microplates are sealed and stored at 4° C. until used for detection of free IL-18. Microplates can also be dried in a stabilizing solution allowing storage at room temperature and then be reconstituted by hydration when needed for assay.
As an example, for a final reaction volume of 100 μl, dispense first 80 μl of biotin/antibody conjugate. Samples or biological fluids containing free IL-18 are tested with the IL-18BP coated microplates. After that, 20 μl sample volume containing biological fluid or standard is dispensed per microplate well. […] The resulting reactions are then monitored with a microplate reader at an appropriate nanometer wavelength for absorbance or fluorescence of the produced reagent. […]
• KD was calculated based on the following formula: KD=[free IL-18]×[free IL-18BP]/[IL-18/IL-18BP complex] […]

[5] = 3 and 10 mg/kg s.c., compared to positive control dexamethasone

B1: IL-18BP: soluble glycoprotein of 164 amino acids produced from a Chinese Hamster Ovary cell line; isoform a, SEQ ID NO 7 (protein, listed as Homo sapiens)
chain: TPVSQTTTAATASVRSTKDPCPSQPPVFPAAKQCPALEVTWPEVEVPLNGTLSLSCVACSRFPNFSILYWLGNGSFIEHLPGRLWEGSTSRERGSTGTQLCKALVLEQLTPALHSTNFSCVLVDPEQVVQRHVVLAQLWAGLRATLPPTQEALPSSHSSPQQQG
modifications: CHO glycosylation; MISC_FEATURE - Human interleukin-18 binding protein isoform a
- exacerbated inflammation inhibition (total cell infiltration) (C57BL/6J mice; 10 mg/kg s.c.): clear and statistically relevant efficacy
- neutrophil infiltration in the lung airway space (C57BL/6J mice; 10 mg/kg s.c.): best statistical efficacy
- neutrophil infiltration in the lung airway space (C57BL/6J mice; [5]): statistically valuable efficacy
- total cell infiltration in the lung airway space (C57BL/6J mice; [5]): statistically valuable efficacy
- weight loss (C57BL/6J mice; 3 and 10 mg/kg s.c., large majority of mice): 6-7%
- tolerability (C57BL/6J mice; IL-18BP s.c.): well tolerated
- weight loss mitigation (C57BL/6J mice; IL-18BP s.c., Students t-test and ANOVA): mitigated by IL-18BP even though both Students t-test and ANOVA statistical analyses were not significant
- neutrophil infiltration in the lung airway space (C57BL/6J mice; IL-18BP s.c., day 5): inhibited
- total cell infiltration in the lung airway space (C57BL/6J mice; IL-18BP s.c., day 5): significant mitigation of total cell infiltration
- clinical efficacy (RA and Pso patients): no efficacy
- Ka (IL-18 [1]): 5.3 ± 1.2 10^+5/MS
- Kd (IL-18 [1]): 20 to 30 pM
- median half-life [2]: ~40 h
- Kd (IL-18 [3]; BIAcore measurements, read-out: KD reported in the literature (Kim et al 2000)): 400 pM
- Kd (IL-18 [3]; IL-18-IL-18BP complex, stoichiometry 1:1, read-out: Dissociation constant KD as calculated by Kim et al 2000): 400 pM
- Kd (IL-18 [4]; PBS supplemented by 5% BSA diluent): 35 pM
- Kd (IL-18 [4]; Serum diluent): 50 pM and ~50 pM
